# Measured values reported in the supplement of paper PMC7125110.
# ± gives the standard error. Fewer inactive variants are shown than the library holds.
# B1: glmS ribozyme (parent)
# chain: AUAAAAGCGCCAGAACUACAGAAAUGUAGUUGACGAGGAGGAGGUUUAUCGAAUUUUCGGCGGAUGCCUCCAAA
# Variants of: B1
# Assay: self-cleavage kobs at 2500 uM GlcN6P; higher = faster cleavage; RNA array
# Conditions: with glucosamine-6-phosphate
# Procedure, shortened: (§1)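 Over ~14 h at 37 °C, tiles were imaged as glucosamine-6-phosphate (40 μM to 10 mM) in HEPES/KCl/Mg(OAc)2 buffer flowed across sequenced MiSeq chips. The chips carried barcoded ribozyme variants transcribed in situ by E. coli RNA polymerase and tracked with a hybridised Cy3 probe. After normalisation to baseline and to non-cleaving reference variants, one- or two-exponential decay fits of per-tile medians gave kobs. kcat and KM followed from weighted Michaelis–Menten fits across concentrations.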
row,Variant,self-cleavage kobs at 2500 uM GlcN6P [s⁻¹]
1,A33C C68G C70U,< 1e-05
2,G32U G59A C68G,0.000713 ± 0.00028
3,A15G G37U C61A C68A C70G,4.28e-05 ± 2e-05
4,C34G G35C G66A,< 1e-05
5,U30A G32C A39G,9.38e-05 ± 3.4e-05
6,C34U A39C C68U,< 1e-05
7,C16U A39G A48C,0.000168 ± 5e-05
8,C34U G40A G41C A48C A52G,< 1e-05
9,A15C A64G C68A,< 1e-05
10,A33C G37U U57A G59U,< 1e-05
11,C19A C34A,< 1e-05
12,U31G A39U A64C,6.17e-05 ± 2.3e-05
13,A33U C67A U69A,< 1e-05
14,G29U U45C U46G,6.29e-05 ± 2.8e-05
15,A33C A39G C70A,< 1e-05
16,A15U C16G U30A A33G G59A,< 1e-05
17,A15C U31A A53G C71G,0.000222 ± 4.5e-05
18,C16U G41A C67U,< 1e-05
19,G35C A39U G59A,< 1e-05
20,U31A G35C A39U C67A C70U,< 1e-05
21,U30C G41U A42C,< 1e-05
22,G26U U30A A52G C71G,0.000299 ± 0.00014
23,U31A A39U C70G,0.000232 ± 7.5e-05

row,Variant,self-cleavage kobs at 2500 uM GlcN6P [s⁻¹]
1,U30C G37C G38C,< 1e-05
2,G29U G40A U65A,3.42e-05 ± 1.6e-05
3,U31G G44U G51C C58U G63U,< 1e-05
4,C16A G37C U55C,< 1e-05
5,C34U U54G G63U,< 1e-05
6,C34U U47G G51U,< 1e-05
7,A33G G35A G44U G59C C70U,< 1e-05
8,A33G G44A U49G,< 1e-05
9,G29C U30G A39G,0.00224 ± 0.00066
10,C16A G43A C58U,< 1e-05
11,G29A U57G C70G,0.000123 ± 5e-05
12,G32U G41A C58U,9.05e-05 ± 2.6e-05
13,C34U U45G,< 1e-05
14,G32U G35A A64G C71U,< 1e-05
15,A15C G35U C70G,< 1e-05
16,C16A A36C A42C U55C U56A U57G C58U C71G,< 1e-05
17,G32U G38U C67U,< 1e-05
18,A15U G43U A53U C68U,8.35e-05 ± 3.5e-05
19,G32A A33U G51U,< 1e-05
20,C16A A33U A52U,< 1e-05
21,C16A A39G U69G,0.000118 ± 3.8e-05
22,C34A G37A G43U,< 1e-05
23,A33C G41C C67G,< 1e-05

row,Variant,self-cleavage kobs at 2500 uM GlcN6P [s⁻¹]
1,G29C A33G A53U A64G U69G,0.000129 ± 4.1e-05
2,C16U G40A U69C,3.52e-05 ± 1.7e-05
3,G32U A39U C50A,< 1e-05
4,C34A G35C A39G G44U C67A C71G,< 1e-05
5,G32U G66A C70A,0.00086 ± 0.00036
6,A15G G38U A52U,< 1e-05
7,U30C G66A C67G,4.46e-05 ± 1.2e-05
8,A33U G43U U65C,< 1e-05
9,A15G U49G C50A G60C,< 1e-05
10,G32U U46C,3.86e-05 ± 1.4e-05
11,U31G U56C G62A,< 1e-05
12,G32C A36G U47C,< 1e-05
13,A33G G44U G63U,< 1e-05
14,A15U U31G G40A,0.000101 ± 2.5e-05
15,C16G U30A A42C U69G,0.000262 ± 6.8e-05
16,C16U A53U A64U,4.5e-05 ± 2.3e-05
17,U31C A33U U46A U57C C70U C71G,< 1e-05
18,A15U G44C A53U C58G C70U,< 1e-05
19,A15C G66U C67G,4.27e-05 ± 1.7e-05
20,A15G U30G A64G,0.00272 ± 0.00073
21,A15U G32U A36G A64G C68U,< 1e-05
22,A15U G51U U65A,< 1e-05
23,A33G A53U G60U C71G,< 1e-05

row,Variant,self-cleavage kobs at 2500 uM GlcN6P [s⁻¹]
1,A15U U30G C68G,4.51e-05 ± 1.8e-05
2,C34U G37A A39C,< 1e-05
3,G32U U55C,0.000307 ± 7.3e-05
4,C16G A52G U55G,9.56e-05 ± 4.1e-05
5,A15C A42G U56A G60U,< 1e-05
6,C16U G29C U55A,0.00365 ± 0.00064
7,G29A U31A G38C,< 1e-05
8,G29U U47G U54G,0.000533 ± 0.00012
9,A33G A36G A52U,< 1e-05
10,G35A A42G U45G,< 1e-05
11,U30C G40A G43A C68A,< 1e-05
12,A33U A53G G62C U65C,< 1e-05
13,G29U U55C G60C C68G,< 1e-05
14,U30A U47C,0.000476 ± 9.7e-05
15,G29U G32A A53C,0.000152 ± 3e-05
16,C16A A33C G40A U56C C67U,< 1e-05
17,U30G G32U G35A A53G,< 1e-05
18,A15G U45C U65G,0.000117 ± 3.1e-05
19,G32U G41C G59A,< 1e-05
20,C16G A39G C71U,0.0054 ± 0.0016
21,A33C G40A A48C G51C G60C,< 1e-05
22,G29C C34U G35A G40U G59C,< 1e-05
23,U30A U46G A53U,0.000335 ± 9.7e-05

row,Variant,self-cleavage kobs at 2500 uM GlcN6P [s⁻¹]
1,U31A A52U,2.52e-05 ± 1.1e-05
2,A33C G40A A52U C61G,< 1e-05
3,G29A G41U C68U,< 1e-05
4,A33U G37A U55A C61U,< 1e-05
5,G32A U69C,0.000191 ± 7.8e-05
6,C34A A42U U47A,< 1e-05
7,A33G C34A U46A C61A,< 1e-05
8,C16U C34G C50G,0.00012 ± 5e-05
9,C34A G41U A42C,< 1e-05
10,A33C C61A G62U,< 1e-05
11,A15U U30C U31A,0.0213 ± 0.0088
12,U31A G38U G51A,< 1e-05
13,C16G U49G U55A,5.61e-05 ± 2.1e-05
14,C16A C34A C70U,< 1e-05
15,G29U C58G C71A,0.000118 ± 3.2e-05
16,G29C G62C U65A,< 1e-05
17,G32U A53C U55A,5.38e-05 ± 1.8e-05
18,G29U G35A A42U,< 1e-05
19,C34U C50A U69C,0.000135 ± 6.7e-05
20,C34A C68G,< 1e-05
21,A33U G51C A53C,< 1e-05
22,U30A C58A C67U,4.25e-05 ± 1.9e-05
23,G32U G44C U47G,< 1e-05

row,Variant,self-cleavage kobs at 2500 uM GlcN6P [s⁻¹]
1,C34G U47C G66A,< 1e-05
2,C16U U30C C50A,< 1e-05
3,G29A U30C A48U C58U,< 1e-05
4,A15G C34A G63A,< 1e-05
5,G35A C50A U55C G62A A64U,< 1e-05
6,A33U G51U C67U,< 1e-05
7,G35C A48G A53U,< 1e-05
8,G26U G41C,0.000123 ± 3.4e-05
9,C19A G32C,4.68e-05 ± 1.6e-05
10,C16U U57A,6.81e-05 ± 2.8e-05
11,A15C C34G U57A,< 1e-05
12,G29C C34A U47A U56C,< 1e-05
13,C16A G43U A53U G60A C68A,< 1e-05
14,A15U G29C C50U,< 1e-05
15,C16G G40U U55A G60U,0.000989 ± 0.00047
16,G29A A48U A53U C58A G59U,< 1e-05
17,G29C G40C U54A,6.31e-05 ± 2.5e-05
18,U31A U47C U56C,0.000498 ± 0.00011
19,A33G A42U U49A G60A,< 1e-05
20,G29U G32C U56A,7.28e-05 ± 1.4e-05
21,G32U U56G G66U,6.54e-05 ± 1.6e-05
22,C16U U46C C61G,< 1e-05
23,G35C U47G C50G G66A,7.72e-05 ± 2.7e-05

row,Variant,self-cleavage kobs at 2500 uM GlcN6P [s⁻¹]
1,U31C A64C U65G,< 1e-05
2,G35A U56A C68G,< 1e-05
3,C19A C34U U45A A48U,< 1e-05
4,A33C G35A U56A,< 1e-05
5,U31C U56G C67A,6.88e-05 ± 1.8e-05
6,C16U G29U C70G C71A,7.2e-05 ± 1.7e-05
7,C34U G63U A64G,0.000111 ± 3.8e-05
8,A33U A39C G62C,< 1e-05
9,U30G C58G G60U,< 1e-05
10,U30A A42C U45G U65G C70G,0.000761 ± 0.00026
11,G29U A33C G44C,0.000325 ± 0.00014
12,A15G G38A A48U,< 1e-05
13,G32C U47A A64G C68A,< 1e-05
14,U30C U55C U56G U69C,< 1e-05
15,U31G C58A C67G,6.38e-05 ± 2e-05
16,G29A G35U A42G A52U,< 1e-05
17,G35C G43U U69G,< 1e-05
18,C34A U69A,< 1e-05
19,C34A A48U C68A C71G,< 1e-05

# Variants of: B1
# Assay: self-cleavage kobs at 10000 uM GlcN6P; higher = faster cleavage; RNA array
# Conditions: with glucosamine-6-phosphate
# Procedure, shortened: as §1
row,Variant,self-cleavage kobs at 10000 uM GlcN6P [s⁻¹]
1,C16U A39G A48C,0.000325 ± 9.5e-05
2,U31G A39U A64C,4.91e-05 ± 1.3e-05
3,U30C G37C G38C,< 1e-05
4,C34U U54G G63U,< 1e-05
5,C34U U45G,< 1e-05
6,G32U U46C,0.000136 ± 1.8e-05
7,A15C G66U C67G,0.000165 ± 4.9e-05
8,G32U U55C,0.000584 ± 6.9e-05
9,A33G A36G A52U,< 1e-05
10,U30A U47C,0.000396 ± 9.1e-05
11,G29U G32A A53C,0.000364 ± 0.0001
12,G29C C34U G35A G40U G59C,< 1e-05
13,U31A A52U,8.67e-05 ± 1.5e-05
14,G32A U69C,0.000717 ± 0.00016
15,G35A C50A U55C G62A A64U,< 1e-05
16,C16U U57A,0.000194 ± 4.1e-05
17,U31A U47C U56C,0.000333 ± 6.1e-05
18,C34A A48U C68A C71G,< 1e-05
